From PMC5814804
Like-named read-outs stand apart in the source and are kept apart here.

Experiments:
[1] = target: Thermotoga maritima TsaB2D2 complex (Thermotoga maritima) (UniProt Q9WZX7); assay: ITC
[2] = target: Thermotoga maritima TsaB2D2 complex (Thermotoga maritima) (UniProt Q9WZX7); assay: ITC; remark: listed apart in the source
[3] = target: Thermotoga maritima TsaB2D2 complex (Thermotoga maritima) (UniProt Q9WZX7); assay: SEC
[4] = target: Thermotoga maritima TsaB2D2 complex (Thermotoga maritima) (UniProt Q9WZX7); assay: SEC; remark: listed apart in the source
[5] = target: Thermotoga maritima TsaB2D2 complex (Thermotoga maritima) (UniProt Q9WZX7); assay: ITC; remark: listed apart in the source

Sequence of Thermotoga maritima TsaB2D2 complex (Thermotoga maritima) (Q9WZX7 whole entry, chain 1 of 2): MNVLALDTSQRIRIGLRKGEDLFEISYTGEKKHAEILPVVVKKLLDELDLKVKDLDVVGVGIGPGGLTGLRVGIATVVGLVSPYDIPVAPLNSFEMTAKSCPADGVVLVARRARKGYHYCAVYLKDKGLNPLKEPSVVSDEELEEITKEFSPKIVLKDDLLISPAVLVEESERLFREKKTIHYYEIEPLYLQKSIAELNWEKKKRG
Sequence of Thermotoga maritima TsaB2D2 complex (Thermotoga maritima) (Q9WXZ2 whole entry, chain 2 of 2, further chain): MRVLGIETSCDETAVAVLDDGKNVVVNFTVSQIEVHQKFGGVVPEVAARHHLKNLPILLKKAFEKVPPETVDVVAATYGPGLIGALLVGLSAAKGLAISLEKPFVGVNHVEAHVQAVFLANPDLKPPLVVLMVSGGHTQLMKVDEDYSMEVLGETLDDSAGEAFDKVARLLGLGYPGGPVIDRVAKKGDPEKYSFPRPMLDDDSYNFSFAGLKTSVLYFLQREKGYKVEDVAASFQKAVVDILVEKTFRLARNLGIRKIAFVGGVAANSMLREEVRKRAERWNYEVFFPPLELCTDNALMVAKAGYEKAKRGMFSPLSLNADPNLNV

| Kd [1] [nM] | dH [1] [kcal/mol] | Kd [2] [nM] | dH [2] [kcal/mol] | stoichiometry N [2] | stoichiometry N (TsaE per TsaB2D2) [3] | stoichiometry N (TsaE per TsaB2D2) [4] | stoichiometry N [1] | Kd [5] [nM] | dH [5] [kcal/mol] | stoichiometry N [5] | Substance |
| --- | --- | --- | --- | --- | --- | --- | --- | --- | --- | --- | --- |
| 1100 | 9.3 | 2400 | 11.9 | 1.91 | – | – | – | – | – | – | Thermotoga maritima TsaE E108A mutant (natural protein) |
| 1400 | 8 | 1100 | 10.3 | 2 | – | – | – | – | – | – | Thermotoga maritima TsaE T42A mutant (natural protein) |
| 1300 | 11.9 | 340 | 7.44 | 2.72 | 2 | 1 | 2.11 | 1100 | 1.54 | 2.16 | Thermotoga maritima TsaE (natural protein) |
